Laboratory results from the supplement of paper PMC9112550, “Optimization of the antimicrobial peptide Bac7 by deep mutational scanning” (BMC Biology, 2022).

tested on: Escherichia coli TOP10; test: shrunken log2 fold change of peptide-encoding DNA abundance (4.5 h post-induction vs induction); higher = less antimicrobial activity (less host growth inhibition); settings: time post-induction: 4.5 h; library: site-saturation at positions 5, 18, 19, 20
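Also: peptides expressed intracellularly from a pBAD plasmid library in pooled LB shake-flask culture, induced with 0.3% L-arabinose, DNA abundance read by NGS, three biological replicates, DESeq2 with apeglm shrinkage.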

Sequence	shrunken log2 fold change
RRIRFRPPRLPRPRPRPFGPPRP	-0.159
RRIRNRPPRLPRPRPRPGWPPRP	0.541
RRIRRRPPRLPRPRPRPGTIPRP	-0.502
RRIRGRPPRLPRPRPRPNQCPRP	0.0163
RRIRWRPPRLPRPRPRPWQGPRP	-0.11
RRIRMRPPRLPRPRPRPCLPPRP	0.154
RRIRHRPPRLPRPRPRPRFVPRP	-0.0283
RRIRCRPPRLPRPRPRPHSSPRP	-0.823
RRIRWRPPRLPRPRPRPFAHPRP	-0.0296
RRIRARPPRLPRPRPRPWTMPRP	-0.0418
RRIRERPPRLPRPRPRPGEIPRP	0.0895
RRIRVRPPRLPRPRPRPICNPRP	-0.183
RRIRPRPPRLPRPRPRPSTKPRP	-0.0696
RRIRFRPPRLPRPRPRPDMNPRP	-0.407
RRIRMRPPRLPRPRPRPWALPRP	0.0536
RRIRYRPPRLPRPRPRPTFKPRP	-0.445
RRIRWRPPRLPRPRPRPEQHPRP	0.339
RRIRARPPRLPRPRPRPWNHPRP	-0.128
RRIRIRPPRLPRPRPRPKNGPRP	-0.202
RRIRGRPPRLPRPRPRPLRNPRP	1.03

Sequence	shrunken log2 fold change
RRIRLRPPRLPRPRPRPYKCPRP	-0.0222
RRIRQRPPRLPRPRPRPWYSPRP	-0.0193
RRIRHRPPRLPRPRPRPLADPRP	0.26
RRIRSRPPRLPRPRPRPMQCPRP	-0.0018
RRIRFRPPRLPRPRPRPAYWPRP	0.21
RRIRFRPPRLPRPRPRPYGGPRP	-0.00865
RRIRPRPPRLPRPRPRPIRLPRP	0.0338
RRIRQRPPRLPRPRPRPFYYPRP	-0.59
RRIRHRPPRLPRPRPRPTYFPRP	-0.309
RRIRQRPPRLPRPRPRPGMQPRP	0.00486
RRIRLRPPRLPRPRPRPKTKPRP	-0.021
RRIRRRPPRLPRPRPRPDEQPRP	0.237
RRIRSRPPRLPRPRPRPKRNPRP	0.228
RRIRCRPPRLPRPRPRPRNRPRP	0.239
RRIRLRPPRLPRPRPRPASQPRP	-0.18
RRIRRRPPRLPRPRPRPKKNPRP	0.496
RRIRARPPRLPRPRPRPWTHPRP	0.04
RRIRMRPPRLPRPRPRPIIGPRP	-0.00776
RRIRCRPPRLPRPRPRPMMGPRP	0.0355
RRIRHRPPRLPRPRPRPSVGPRP	0.319

Sequence	shrunken log2 fold change
RRIRRRPPRLPRPRPRPDESPRP	0.037
RRIRARPPRLPRPRPRPKYLPRP	-0.299
RRIRFRPPRLPRPRPRPNYQPRP	-0.467
RRIRIRPPRLPRPRPRPMLVPRP	0.0625
RRIRDRPPRLPRPRPRPNIFPRP	-0.0871
RRIRSRPPRLPRPRPRPGQGPRP	0.0895
RRIRDRPPRLPRPRPRPIWKPRP	-0.00783
RRIRSRPPRLPRPRPRPHRSPRP	-0.188
RRIRVRPPRLPRPRPRPTGIPRP	-0.115
RRIRHRPPRLPRPRPRPNVIPRP	0.0378
RRIRSRPPRLPRPRPRPHRPPRP	0.0831
RRIRHRPPRLPRPRPRPLQCPRP	-0.0439
RRIRFRPPRLPRPRPRPWPVPRP	0.139
RRIRTRPPRLPRPRPRPRCTPRP	-0.00178
RRIRCRPPRLPRPRPRPMAGPRP	-0.0712
RRIRVRPPRLPRPRPRPYFTPRP	-0.689
RRIRTRPPRLPRPRPRPCQEPRP	-0.0218
RRIRWRPPRLPRPRPRPNHKPRP	-0.37
RRIRMRPPRLPRPRPRPLLPPRP	0.354
RRIRARPPRLPRPRPRPFRIPRP	-0.169
